Molecular target: T1, GST-tagged ARK5 wild type (AMPK-related protein kinase 5) (human, UniProt O60285 1-661)
T1 construct: ARK5 (aka NUAK1), UniProt ID O60285; Printed both as GST-ARK5 and ARK5-GST, so the end of the tag is not clear; also called NUAK1; GST-ARK5; source: U2OS, transfected, in lysate; U2OS, transfected, purified (Pierce GST spin purification kit)
T1 sequence (looked up): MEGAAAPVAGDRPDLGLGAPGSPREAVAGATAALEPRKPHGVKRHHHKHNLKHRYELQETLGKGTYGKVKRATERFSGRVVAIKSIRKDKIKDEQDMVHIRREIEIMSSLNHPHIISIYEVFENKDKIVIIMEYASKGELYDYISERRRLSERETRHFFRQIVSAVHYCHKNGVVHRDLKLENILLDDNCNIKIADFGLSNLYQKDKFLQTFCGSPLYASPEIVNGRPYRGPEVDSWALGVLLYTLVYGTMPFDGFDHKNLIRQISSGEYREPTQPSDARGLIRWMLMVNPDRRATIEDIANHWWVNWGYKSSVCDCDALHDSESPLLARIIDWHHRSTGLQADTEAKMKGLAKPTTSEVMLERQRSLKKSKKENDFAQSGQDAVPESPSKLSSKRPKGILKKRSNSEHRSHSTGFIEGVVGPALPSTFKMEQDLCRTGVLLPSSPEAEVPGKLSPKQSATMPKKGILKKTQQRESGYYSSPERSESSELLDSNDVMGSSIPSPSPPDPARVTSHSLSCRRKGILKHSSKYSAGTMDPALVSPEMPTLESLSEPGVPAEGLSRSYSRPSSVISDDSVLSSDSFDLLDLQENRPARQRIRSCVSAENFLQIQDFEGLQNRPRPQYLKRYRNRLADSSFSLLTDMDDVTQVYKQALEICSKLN
Assay: co-IP; in vivo co-IP: U2OS cells cotransfected with GST-ARK5 (WT or KD) and FLAG-hnRNP A1 (WT, fragments or mutants); lysate in co-IP buffer (25 mM Tris-HCl pH 7.4, 150 mM NaCl, 0.5% Triton X-100), GSH Sepharose beads overnight at 4 °C, immunoblotting
Details: partners not purified

binding result: binds
B1: FLAG-tagged hnRNP A1 wild type (heterogeneous nuclear ribonucleoprotein A1) (natural protein, human, UniProt P09651-2 1-320, looked up)
chain: MSKSESPKEPEQLRKLFIGGLSFETTDESLRSHFEQWGTLTDCVVMRDPNTKRSRGFGFVTYATVEEVDAAMNARPHKVDGRVVEPKRAVSREDSQRPGAHLTVKKIFVGGIKEDTEEHHLRDYFEQYGKIEVIEIMTDRGSGKKRGFAFVTFDDHDSVDKIVIQKYHTVNGHNCEVRKALSKQEMASASSSQRGRSGSGNFGGGRGGGFGGNDNFGRGGNFSGRGGFGGSRGGGGYGGSGDGYNGFGNDGSNFGGGGSYNDFGNYNNQSSNFGPMKGGNFGGRSSGPYGGGGQYFAKPRNQGGYGGSSSSSSYGSGRRF
notes: hnRNP A1, full length, printed length 320 aa (residues 1-320); The printed residue numbers (1-320) fit the 320-residue isoform; also called FLAG-hnRNP A1 WT; A1-WT; source: U2OS, transfected, in lysate; U2OS, transfected, purified separately

Reference: article PMC9478406, “AMPK-related protein kinase ARK5 regulates subcellular localization of RNA-binding protein hnRNP A1 during hypertonic stress” (The Journal of Biological Chemistry, 2022)
